Source: paper PMC10786891, “Massively parallel profiling of RNA-targeting CRISPR-Cas13d”

T1: EsCas13d, nuclease-dead (Eubacterium siraeum, UniProt B0MS50, R295A;H300A;R849A;H854A)
T1 sequence: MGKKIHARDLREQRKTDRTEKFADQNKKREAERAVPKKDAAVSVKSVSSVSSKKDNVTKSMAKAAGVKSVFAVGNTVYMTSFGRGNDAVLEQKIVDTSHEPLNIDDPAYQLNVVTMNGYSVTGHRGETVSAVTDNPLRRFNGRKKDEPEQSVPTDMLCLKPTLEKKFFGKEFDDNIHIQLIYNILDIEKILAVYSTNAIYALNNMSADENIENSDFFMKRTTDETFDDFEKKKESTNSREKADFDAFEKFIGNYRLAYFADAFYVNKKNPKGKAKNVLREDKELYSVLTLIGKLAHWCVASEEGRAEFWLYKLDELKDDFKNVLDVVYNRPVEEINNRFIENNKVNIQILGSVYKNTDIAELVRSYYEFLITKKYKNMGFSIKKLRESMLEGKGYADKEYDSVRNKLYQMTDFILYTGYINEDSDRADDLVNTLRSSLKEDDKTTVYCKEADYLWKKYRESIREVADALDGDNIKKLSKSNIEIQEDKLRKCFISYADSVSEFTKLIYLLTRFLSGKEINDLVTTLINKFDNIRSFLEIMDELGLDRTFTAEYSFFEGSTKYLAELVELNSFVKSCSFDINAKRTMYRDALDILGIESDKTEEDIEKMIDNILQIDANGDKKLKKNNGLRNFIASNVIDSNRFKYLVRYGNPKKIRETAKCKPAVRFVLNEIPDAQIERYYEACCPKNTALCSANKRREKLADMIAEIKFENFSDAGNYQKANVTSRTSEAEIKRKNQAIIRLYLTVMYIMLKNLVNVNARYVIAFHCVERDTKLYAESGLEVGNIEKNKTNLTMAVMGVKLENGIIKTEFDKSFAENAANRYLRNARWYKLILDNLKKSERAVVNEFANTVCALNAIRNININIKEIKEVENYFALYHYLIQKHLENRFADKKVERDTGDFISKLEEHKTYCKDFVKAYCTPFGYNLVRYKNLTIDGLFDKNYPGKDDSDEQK

B1: target 2 MT 5'PFS ACU 3'PFS CGA (mixed)
RNA 1: CACCCGUGCAAAAUUGCAGGGGUCUAAAACCUUCUCCAAAUUGUUUCAUCCU
RNA 2: GGGAAUGGAUCCACAUCUACGAAUUCACUAGGAUGAAACAAUUUGGAGAAGCGAAGAUCGGAAGAGCACACGU
B2: target 2 MT 5'PFS AUG 3'PFS UCU (mixed)
RNA 1: CACCCGUGCAAAAUUGCAGGGGUCUAAAACCUUCUCCAAAUUGUUUCAUCCU
RNA 2: GGGAAUGGAUCCACAUCUACGAAUUCAUGAGGAUGAAACAAUUUGGAGAAGUCUAGAUCGGAAGAGCACACGU
B3: target 2 MT 5'PFS AAU 3'PFS UUC (mixed)
RNA 1: CACCCGUGCAAAAUUGCAGGGGUCUAAAACCUUCUCCAAAUUGUUUCAUCCU
RNA 2: GGGAAUGGAUCCACAUCUACGAAUUCAAUAGGAUGAAACAAUUUGGAGAAGUUCAGAUCGGAAGAGCACACGU
B4: target 2 MT 5'PFS AAU 3'PFS UUA (mixed)
RNA 1: CACCCGUGCAAAAUUGCAGGGGUCUAAAACCUUCUCCAAAUUGUUUCAUCCU
RNA 2: GGGAAUGGAUCCACAUCUACGAAUUCAAUAGGAUGAAACAAUUUGGAGAAGUUAAGAUCGGAAGAGCACACGU
B5: target 2 MT 5'PFS AAA 3'PFS CUU (mixed)
RNA 1: CACCCGUGCAAAAUUGCAGGGGUCUAAAACCUUCUCCAAAUUGUUUCAUCCU
RNA 2: GGGAAUGGAUCCACAUCUACGAAUUCAAAAGGAUGAAACAAUUUGGAGAAGCUUAGAUCGGAAGAGCACACGU
B6: target 2 MT 5'PFS AAU 3'PFS UUU (mixed)
RNA 1: CACCCGUGCAAAAUUGCAGGGGUCUAAAACCUUCUCCAAAUUGUUUCAUCCU
RNA 2: GGGAAUGGAUCCACAUCUACGAAUUCAAUAGGAUGAAACAAUUUGGAGAAGUUUAGAUCGGAAGAGCACACGU
B7: target 2 MT 5'PFS AUG 3'PFS UCC (mixed)
RNA 1: CACCCGUGCAAAAUUGCAGGGGUCUAAAACCUUCUCCAAAUUGUUUCAUCCU
RNA 2: GGGAAUGGAUCCACAUCUACGAAUUCAUGAGGAUGAAACAAUUUGGAGAAGUCCAGAUCGGAAGAGCACACGU
B8: target 2 MT 5'PFS AUG 3'PFS UCA (mixed)
RNA 1: CACCCGUGCAAAAUUGCAGGGGUCUAAAACCUUCUCCAAAUUGUUUCAUCCU
RNA 2: GGGAAUGGAUCCACAUCUACGAAUUCAUGAGGAUGAAACAAUUUGGAGAAGUCAAGAUCGGAAGAGCACACGU
B9: target 2 MT 5'PFS AGG 3'PFS CGC (mixed)
RNA 1: CACCCGUGCAAAAUUGCAGGGGUCUAAAACCUUCUCCAAAUUGUUUCAUCCU
RNA 2: GGGAAUGGAUCCACAUCUACGAAUUCAGGAGGAUGAAACAAUUUGGAGAAGCGCAGAUCGGAAGAGCACACGU
B10: target 2 MT 5'PFS AAA 3'PFS CUC (mixed)
RNA 1: CACCCGUGCAAAAUUGCAGGGGUCUAAAACCUUCUCCAAAUUGUUUCAUCCU
RNA 2: GGGAAUGGAUCCACAUCUACGAAUUCAAAAGGAUGAAACAAUUUGGAGAAGCUCAGAUCGGAAGAGCACACGU
B11: target 1 insC 3' of 3,insG 3' of 3 (mixed)
RNA 1: CACCCGUGCAAAAAUGCAGGGGUCUAAAACUGAGCGGAUAACCUCUCUAUGG
RNA 2: GGGAAUGGAUCCACAUCUACGAAUUCGUACCAUAGAGAGGUUAUCCGCUCGCACCGAGAUCGGAAGAGCACACGU
B12: target 2 MT 5'PFS UCU 3'PFS AGA (mixed)
RNA 1: CACCCGUGCAAAAUUGCAGGGGUCUAAAACCUUCUCCAAAUUGUUUCAUCCU
RNA 2: GGGAAUGGAUCCACAUCUACGAAUUCUCUAGGAUGAAACAAUUUGGAGAAGAGAAGAUCGGAAGAGCACACGU
B13: target 2 MT 5'PFS GCC 3'PFS CGA (mixed)
RNA 1: CACCCGUGCAAAAUUGCAGGGGUCUAAAACCUUCUCCAAAUUGUUUCAUCCU
RNA 2: GGGAAUGGAUCCACAUCUACGAAUUCGCCAGGAUGAAACAAUUUGGAGAAGCGAAGAUCGGAAGAGCACACGU

What follows are binders tested against T1, EsCas13d, nuclease-dead (assay: crRNA (strand 1, pre-loaded); Mg2+; 40 mM Tris-HCl pH 7.5, 150 mM NaCl, 6 mM MgCl2, 1 mM DTT, 0.1% Tween-20, 0.2 mg/ml BSA; 25 C; 10 min per concentration, then washed). Settings: tags: His6-TwinStrep-SUMO cleaved; N-terminal SNAP kept (SNAP-Surface 488); label: 3' end held by stalled T7 RNA polymerase.

Question: How did the Kd turn out when B1 was run?
Answer: 4.1 ± 0.4 nM

Question: B2 was tested. Which Kd did it give?
Answer: 17.4 ± 2.6 nM

Question: Which Kd does the source give for B3 here?
Answer: 9.7 ± 1.5 nM

Question: How did the Kd turn out when B4 was run?
Answer: 6.5 ± 0.8 nM

Question: Which Kd does the source give for B5 here?
Answer: 3.9 ± 0.6 nM

Question: For B6, which Kd is on record?
Answer: 12.4 ± 2.5 nM

Question: With B7 as the binder, how does the Kd read?
Answer: 24.4 ± 2.8 nM

Question: With B8 as the binder, how does the Kd read?
Answer: 15 ± 5 nM

Question: How did the Kd turn out when B9 was run?
Answer: 4.7 ± 0.5 nM

Question: How did the Kd turn out when B10 was run?
Answer: 6.5 ± 1.2 nM

Question: With B11 as the binder, how does the Kd read?
Answer: 8.5 ± 0.6 nM

Question: How did the Kd turn out when B12 was run?
Answer: 40 ± 18 nM

Question: B13 was tested. Which Kd did it give?
Answer: 14 ± 3.3 nM
